± gives the uncertainty stated by the source.
assay: amyloid nucleation score (Sup35N fusion, yeast selection) (log enrichment); library NNK2; higher = more nucleation; inactive = no reads after selection
How it was run: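 Peptides of 20 random codons, each fused to Sup35N, were expressed in psi-negative yeast. Cells were induced with 100 μM copper sulfate for 24 hours and grown 7 days at 30°C on medium lacking adenine and uracil, and plasmid inserts before and after selection were Illumina-sequenced. Nucleation scores are DiMSum log enrichments of output over input reads, centred on the mode score of non-aggregating sequences, and sequences under 100 input reads were excluded.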

Row | Substance | amyloid nucleation score
1 | ADEVLYYGCVSSCLMFGVLI | -0.069 ± 0.35
2 | ADFFVLDMWLTYCMKTLFSC | -1.27 ± 0.48
3 | ADSVYAVRRKAV | 0.356 ± 0.8
4 | AEAISQLEAMR | 1.13 ± 0.39
5 | AEAWGVFYHWHDT | -0.493 ± 0.53
6 | AELLYMFWACNFSWSMPL | -0.986 ± 0.76
7 | AESVCYQMTCIPCLLIFNTV | 8.966 ± 0.054
8 | AETLPFWGNG | 0.695 ± 0.57
9 | AFLNFTDRKSQWKVMVIEFL | 3.3 ± 0.096
10 | AFRVNWYDQNRYVEVKG | 0.292 ± 0.4
11 | AFSVFSWSFQWQTSCWQICE | 5.022 ± 0.038
12 | AFVNVVGLVYSF | -1.42 ± 0.45
13 | AFYMIRH | 3.66 ± 0.076
14 | AGEQEVDGPVIQRWSGFTTR | 2.2 ± 0.21
15 | AGGWVFFQGESSSLSNTSGS | inactive
16 | AGLRGIHEIGLLDAKWDDNH | inactive
17 | AGPWGVSTFYAVHLLASLYP | -0.446 ± 0.79
18 | AGRNIGIHIVGLDRQRSSAN | 0.278 ± 0.31
19 | AGVSLFVHGNL | 4.45 ± 0.095
20 | AHAPGPNEA | 0.276 ± 0.8
21 | AHHLSFGVNDCSTCERSVQ | 0.77 ± 0.28
22 | AHLRITFSMSMNMQLFMVLR | 0.587 ± 0.48
23 | AHQHWQRGFEEHPEIRFIHW | 4.29 ± 0.11
24 | AIASLTRTFSA | 0.167 ± 0.42
25 | AIIPRMLKYRERGKPTKRDT | 0.291 ± 0.24

Row | Substance | amyloid nucleation score
26 | AILGLYVYMGSWHKGVSGVI | inactive
27 | AIQLCLWSKRSQGRWFTLPV | 0.82 ± 0.47
28 | AISRRALKTHHFKWGCNVG | 0.266 ± 0.19
29 | AIWSVLYGGRYTMPHSIFGA | 0.448 ± 0.38
30 | AIWVYRPLVIQGTFGIRPA | 6.15 ± 0.08
31 | AKGMGPKNDTTYYFPVSVFE | -0.213 ± 0.48
32 | ALCKMQLITSSYQGPATEDL | -0.168 ± 0.76
33 | ALECHIRLKWRVSVGPGVLV | 1.17 ± 0.28
34 | ALFIEISPLTINLFTNAKSL | -1.06 ± 0.76
35 | ALGSRINYQKGLMQNRTGKG | -0.649 ± 0.76
36 | ALIGLWVGKPFPGGMLVLFM | 0.24 ± 0.3
37 | ALILVAMSVFLSAGLRVMIK | inactive
38 | ALKFHGSNDSRFLI | -0.756 ± 1
39 | ALNSPFMLQFLDWL | 0.11 ± 0.76
40 | ALPAFELGEFNNADHSHDDN | -0.464 ± 1.1
41 | ALSSFIGVRNLQAQGHFTQI | 0.638 ± 0.36
42 | ALYLL | 0.154 ± 0.23
43 | AMDASR | 1.7 ± 0.12
44 | AMERDYFLTVTCDRVKYLGE | 1.01 ± 0.4
45 | AMFTSSMIRTLGCCSGSQTA | 4.14 ± 0.13
46 | AMLLNILVPYVYSKTGRGPV | 1.88 ± 0.33
47 | AMNVDIN | -0.641 ± 0.24
48 | AMRWFGKYSRFWNGYIRNWI | -0.193 ± 0.76
49 | AMYFRVVLA | 1.25 ± 0.31
50 | ANAAV | 1.12 ± 0.61

Row | Substance | amyloid nucleation score
51 | ANCATSVLCCSGCV | 0.878 ± 0.14
52 | ANGVSILDFRKHATFWWWET | -0.103 ± 0.29
53 | ANLCSAT | -0.799 ± 0.44
54 | ANLRLYICWGFDKSVINIKS | 6.908 ± 0.038
55 | ANQSVYLAEAVYQAGIEGRD | 0.358 ± 0.24
56 | ANRNRYNLHWDMG | 0.946 ± 0.6
57 | ANSMLVF | -0.573 ± 0.4
58 | ANSVCDNVVTVSLLRLYMVL | 5.39 ± 0.071
59 | ANSYYIVYLGPHHAYFFILK | 3.75 ± 0.12
60 | ANTCVPPLLRMFPLRGRTHI | -0.184 ± 1.1
61 | ANTWVKHTLCVGRLQGDWGI | -0.029 ± 0.42
62 | APNMKSNLYFPEVRLNEGSR | 0.714 ± 0.53
63 | APSLIYFNVST | 3.75 ± 0.13
64 | AQFVKWAVNLLGSRYSWYEQ | inactive
65 | AQGSRDSNRRVEASACY | -0.09 ± 0.63
66 | ARDRNSFGLDCAVFMSYFTT | 3.34 ± 0.11
67 | ARKYLRCGSACVKVEYF | 3.51 ± 0.047
68 | ARNRSSIKWGRGSDYGFTEL | 0.451 ± 0.65
69 | ARSDLNMRTFFVWASLFVLS | 4.43 ± 0.056
70 | ARVALRLIYDMDRVLWPDSY | 5 ± 0.067
71 | ARYLITTAQVPVLGPRSQHK | 0.073 ± 0.41
72 | ASAEQRNLCIEFASDQLYVI | -0.478 ± 0.38
73 | ASAYSPASRRSTDMADALV | 0.496 ± 0.31
74 | ASDWLNRNSNS | -0.211 ± 0.28
75 | ASGVFSLAEYNFFGISKKSF | inactive

Row | Substance | amyloid nucleation score
76 | ASIPINHPHRVRLNTSYECI | -0.657 ± 0.56
77 | ASMKGYV | 0.148 ± 0.5
78 | ASTSLMVN | 0.052 ± 0.46
79 | ATQRHVSTGKSGSN | 0.606 ± 0.8
80 | ATQVMMGVAEYACLYNCTHM | 8.223 ± 0.078
81 | ATRCFSNWDTSACYMWKC | 8.074 ± 0.061
82 | ATVRLHNGFG | 0.127 ± 0.31
83 | AVALYVSDSQDHPGNRNVLV | 2.45 ± 0.099
84 | AVCVENLCPWV | 1.82 ± 0.11
85 | AVEAYNMSNYLLRYISGSV | -0.109 ± 0.65
86 | AVFTIFALVRS | 1.08 ± 0.51
87 | AVFVPNSNALVLTVLT | 0.603 ± 0.51
88 | AVKCGNGSEF | -0.066 ± 0.45
89 | AVMAISMRS | 0.514 ± 0.56
90 | AVMMCIASIDFRVWYLG | 1.53 ± 0.15
91 | AVNCH | 0.748 ± 0.19
92 | AVQAIITHQTLGKQVFFWFE | 7.85 ± 0.076
93 | AVSIGLYFVQASP | 9.658 ± 0.052
94 | AVSVAVLRHLEVRRKVWS | 1.66 ± 0.15
95 | AWCFLYLLWLPGIQN | -0.226 ± 1.1
96 | AWESIAFPCKVIYCYLRWTL | inactive
97 | AWFMCSFECVTRSVKHALR | 0.523 ± 0.64
98 | AWHSRTFVSLSLGRTSVEVL | -0.242 ± 0.45
99 | AWLWKMFNGTCNRWYINRPL | -0.81 ± 0.76
100 | AWSLDVTTM | 0.051 ± 0.27

Row | Substance | amyloid nucleation score
101 | AWSYVQFRTFYALTVPTSAL | -0.125 ± 0.38
102 | AYKCFGVLCFRRNRSGKEGL | -0.318 ± 0.76
103 | AYLLWVRYIYEHDSTIGWLI | inactive
104 | AYSGIECGVVQWSFYRRKLI | inactive
105 | AYSKTNVFNSWWLVKCLFLF | inactive
106 | AYVRNAIGTMFLLALSHRGD | -0.345 ± 0.48
107 | CAFRASFLLT | 0.04 ± 0.34
108 | CAIKFPYQFTYLNINNQ | 6.229 ± 0.044
109 | CAINPKVKRSFLVI | -1.73 ± 1.1
110 | CAISYSFPGIFRQWCVFPDG | -0.593 ± 0.33
111 | CAPVTLVFRYAGIYMQLFIW | inactive
112 | CASRC | 4.11 ± 0.06
113 | CCAGWYSGEEGRMGSRL | 0.511 ± 0.18
114 | CCFVVISYDRNSQLH | 9.791 ± 0.043
115 | CCPASYMQYEFLGRMSGGCW | 2.82 ± 0.15
116 | CCRNLRDRLNW | inactive
117 | CCSIVSTYRKYLVNRTRWIF | -0.982 ± 0.42
118 | CCSVCFRRLLYLLSRR | 6.9 ± 0.068
119 | CCVAGLFEWHWY | 8.409 ± 0.081
120 | CCVDDRWVDARPWGSRNSRA | 0.491 ± 0.57
121 | CDFDIHERMCPYCYIIQVGD | -0.081 ± 0.65
122 | CDHVVVIIIVGWGAEGE | 0.512 ± 0.25
123 | CDISRGLILYTHGLLFWTIR | inactive
124 | CDMFLSYLRT | 1.74 ± 0.23
125 | CDSWWYFSNKANSLWSKCSA | -0.723 ± 0.35

Row | Substance | amyloid nucleation score
126 | CDVRMRVAGRAR | 3.19 ± 0.11
127 | CDYWYYIGRRNVEMEHRVTC | 0.148 ± 1
128 | CEFLMLFREFLDW | 4.59 ± 0.055
129 | CEFMCLQGSRDRIDFLHRSE | -1 ± 0.34
130 | CELRIFTCHDSCAVLDRWME | 1.16 ± 0.18
131 | CEVSGYARWLGQHYWSAVRA | 1.69 ± 0.32
132 | CFFLYIRHFAMYCA | 1.65 ± 0.17
133 | CFFPDSVTTELKKIKTL | -0.692 ± 0.41
134 | CFGIILVQGYMHA | 3.6 ± 0.052
135 | CFIENILRFGSW | 3.1 ± 0.052
136 | CFKDYQIGSCKQSL | -0.499 ± 0.76
137 | CFLGHGCILVGYLRDYRLLR | 0.759 ± 0.67
138 | CFLTTYNRNYNLMRVFSIFR | 1.43 ± 0.21
139 | CFMDFQWHMRSHG | -0.265 ± 0.3
140 | CFPSILSRFINLRCPGRSSY | inactive
141 | CFSKMFNV | -1.03 ± 0.53
142 | CGARRGCDSWTSSTAGKSVG | 1.16 ± 0.61
143 | CGFIVKTAWGLVLATLGATY | 2.54 ± 0.11
144 | CGFSWCIDQLGTCLCKMVVV | -0.269 ± 0.28
145 | CGLLGVPFTKLTMLISRRMT | 0.286 ± 0.61
146 | CGLLYREVSIGQGSPTGVRD | inactive
147 | CGLVLVIRVYITSLYNSRFM | 1.49 ± 0.14
148 | CGLWASNSSTFRDFESNESN | -0.51 ± 0.63
149 | CGMNGKTEGEWMGYRKDEGE | 6.03 ± 0.077
150 | CGMRTEMTLGCLILAAGTWT | 0.111 ± 0.5

Row | Substance | amyloid nucleation score
151 | CGQFAYYGACDVGIFFRS | 4.74 ± 0.037
152 | CGRWVSGAWDGCGCGLGVLG | -0.305 ± 0.55
153 | CHHQRYGSGFRLRNSLTVGS | 0.015 ± 0.41
154 | CHPLEMWFFFSLGGFGVSMT | -1.54 ± 1.1
155 | CHQVI | 0.383 ± 0.74
156 | CHRLVLQLI | inactive
157 | CHSLRILRPRIYSVQVMLIG | -0.01 ± 0.63
158 | CIAYRDSTAYHNMTRGTAMV | 3.72 ± 0.043
159 | CIDVRDTWNVPSVDYSMVLY | -0.363 ± 1.1
160 | CIEDRVCLDS | 8.276 ± 0.041
161 | CIFWLDYATFDTGLSLYMCE | -0.094 ± 1
162 | CIKALRVYFYEGFTSTR | -1.89 ± 1.1
163 | CILRGLVASSNNSGSIGAMK | 0.361 ± 0.23
164 | CINYG | 0.96 ± 0.39
165 | CIVMLRTIIQRSFNMSMTHY | 3.2 ± 0.058
166 | CIYHGANRIYLSDVA | 0.381 ± 0.6
167 | CKIEGWCTGCGSRQLRARAE | 1.09 ± 0.34
168 | CKWMLEENMGQEADSV | -0.289 ± 0.21
169 | CLAISWEGWSNSFGRYVVGW | 1.86 ± 0.1
170 | CLCQIHSRSYPFIL | 0.148 ± 1
171 | CLGSLHNVLQALAMTEPSNY | 0.044 ± 0.79
